This assay has as its target T1, His8-tagged GSAP-16K 734 to 758 (UniProt A4D1B5 734-758).
T1 chain (looked up): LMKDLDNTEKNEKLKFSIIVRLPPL
Nature of the assay: SEC.

For SIHHGVVEV (domain or fragment, UniProt P05067 730-738, looked up) [GST-APP 730 to 738], the binding result was “binds”.
